Assay results published in article PMC6778109.

Target: Edc3 IDR
Test: methyl TROSY NMR titration

other: chemical shift perturbation Δδ of the introduced methyl group (+ 6x Edc3 IDR) | other: chemical shift perturbation Δδ of the introduced methyl group (+ 4x Edc3 IDR) | Substance
0.087 ppm |  | Edc3 YjeF_N domain (from UniProt O94752) K392M
0.078 ppm |  | Edc3 YjeF_N domain (from UniProt O94752) Q447I
 | 0.391 ppm | Edc3 YjeF_N domain (from UniProt O94752) V253I
 | 0.104 ppm | Edc3 YjeF_N domain (from UniProt O94752) W393M
